Measured values published in the MegaScale stability set (Tsuboyama et al. 2023).

B1: EEHEE_rd3_0130 (parent)
chain: TKIIVNGKTFTAPTEEEAQKIAEKLAKKAGLTVHKKNGTFELK

Variants of: B1
Test: folding stability dG (cDNA display proteolysis); higher = more stable
Conditions: PBS, room temperature

In order of rising “folding stability dG” value:
1. TKIIVNGKTFTAPEEEEAQKIAEKLAKKAGLTVHKKNGTFELK [T14E]  -0.71 kcal/mol
2. TKIIVNGKPFTAPTEEEAQKIAEKLAKKAGLTVHKKNGTFELK [T9P]  -0.619 kcal/mol
3. TKIIVNGKTFTAPFEEEAQKIAEKLAKKAGLTVHKKNGTFELK [T14F]  -0.544 kcal/mol
4. TKIIVNGKGFTAPTEEEAQKIAEKLAKKAGLTVHKKNGTFELK [T9G]  -0.452 kcal/mol
5. TKIIVNGKTFTAPKEEEAQKIAEKLAKKAGLTVHKKNGTFELK [T14K]  -0.4 kcal/mol
6. TKIIVNGDTFTAPTEEEAQKIAEKLAKKAGLTVHKKNGTFELK [K8D]  -0.391 kcal/mol
7. TKIIVNGKNFTAPTEEEAQKIAEKLAKKAGLTVHKKNGTFELK [T9N]  -0.378 kcal/mol
8. TKIIVNGKTFTAPHEEEAQKIAEKLAKKAGLTVHKKNGTFELK [T14H]  -0.337 kcal/mol
9. TKIIVNGKTFTAPAEEEAQKIAEKLAKKAGLTVHKKNGTFELK [T14A]  -0.233 kcal/mol
10. TKIIVNGGTFTAPTEEEAQKIAEKLAKKAGLTVHKKNGTFELK [K8G]  -0.232 kcal/mol
11. TKIIVNGKRFTAPTEEEAQKIAEKLAKKAGLTVHKKNGTFELK [T9R]  -0.066 kcal/mol
12. TKIIVNGKKFTAPTEEEAQKIAEKLAKKAGLTVHKKNGTFELK [T9K]  0.007 kcal/mol
13. TKIIVNGETFTAPTEEEAQKIAEKLAKKAGLTVHKKNGTFELK [K8E]  0.053 kcal/mol
14. TKIIVNGKHFTAPTEEEAQKIAEKLAKKAGLTVHKKNGTFELK [T9H]  0.114 kcal/mol
15. TKIIVNGKEFTAPTEEEAQKIAEKLAKKAGLTVHKKNGTFELK [T9E]  0.17 kcal/mol
16. TKIIVNGSTFTAPTEEEAQKIAEKLAKKAGLTVHKKNGTFELK [K8S]  0.223 kcal/mol
17. TKIIVNGNTFTAPTEEEAQKIAEKLAKKAGLTVHKKNGTFELK [K8N]  0.238 kcal/mol
18. TKIIVNGKTFTAYTEEEAQKIAEKLAKKAGLTVHKKNGTFELK [P13Y]  0.302 kcal/mol
19. TKIIVNGKQFTAPTEEEAQKIAEKLAKKAGLTVHKKNGTFELK [T9Q]  0.38 kcal/mol
20. TKIIVNGKTFTAFTEEEAQKIAEKLAKKAGLTVHKKNGTFELK [P13F]  0.391 kcal/mol
21. TKIIVNGKAFTAPTEEEAQKIAEKLAKKAGLTVHKKNGTFELK [T9A]  0.394 kcal/mol
22. TKIIVNGKTFTAITEEEAQKIAEKLAKKAGLTVHKKNGTFELK [P13I]  0.41 kcal/mol
23. TKIIVNGKTFTAVTEEEAQKIAEKLAKKAGLTVHKKNGTFELK [P13V]  0.451 kcal/mol
24. TKIIVNGKSFTAPTEEEAQKIAEKLAKKAGLTVHKKNGTFELK [T9S]  0.461 kcal/mol
25. TKIIVNGTTFTAPTEEEAQKIAEKLAKKAGLTVHKKNGTFELK [K8T]  0.475 kcal/mol
26. TKIIVNGKTFTALTEEEAQKIAEKLAKKAGLTVHKKNGTFELK [P13L]  0.492 kcal/mol
27. TKIIVNGATFTAPTEEEAQKIAEKLAKKAGLTVHKKNGTFELK [K8A]  0.511 kcal/mol
28. TKIIVNGKTFTAMTEEEAQKIAEKLAKKAGLTVHKKNGTFELK [P13M]  0.526 kcal/mol
29. TKIIVNGKTFTAWTEEEAQKIAEKLAKKAGLTVHKKNGTFELK [P13W]  0.532 kcal/mol
30. TKIIVNGKLFTAPTEEEAQKIAEKLAKKAGLTVHKKNGTFELK [T9L]  0.562 kcal/mol
31. TKIIVNGKTFTAETEEEAQKIAEKLAKKAGLTVHKKNGTFELK [P13E]  0.598 kcal/mol
32. TKIIVNGKYFTAPTEEEAQKIAEKLAKKAGLTVHKKNGTFELK [T9Y]  0.633 kcal/mol
33. TKIIVNGKTFTATTEEEAQKIAEKLAKKAGLTVHKKNGTFELK [P13T]  0.634 kcal/mol
34. TKIIVNGKTFTAHTEEEAQKIAEKLAKKAGLTVHKKNGTFELK [P13H]  0.651 kcal/mol
35. TKIIVNGKTFTAQTEEEAQKIAEKLAKKAGLTVHKKNGTFELK [P13Q]  0.651 kcal/mol
36. TKIIVNGKMFTAPTEEEAQKIAEKLAKKAGLTVHKKNGTFELK [T9M]  0.652 kcal/mol
37. TKIIVNGKTFTADTEEEAQKIAEKLAKKAGLTVHKKNGTFELK [P13D]  0.664 kcal/mol
38. TKIIVNGQTFTAPTEEEAQKIAEKLAKKAGLTVHKKNGTFELK [K8Q]  0.67 kcal/mol
39. TKIIVNGKTFTANTEEEAQKIAEKLAKKAGLTVHKKNGTFELK [P13N]  0.67 kcal/mol
40. TKIIVNGKFFTAPTEEEAQKIAEKLAKKAGLTVHKKNGTFELK [T9F]  0.699 kcal/mol
41. TKIIVNGKTFTAGTEEEAQKIAEKLAKKAGLTVHKKNGTFELK [P13G]  0.731 kcal/mol
42. TKIIVNGKTFTASTEEEAQKIAEKLAKKAGLTVHKKNGTFELK [P13S]  0.761 kcal/mol
43. TKIIVNGKTFTAATEEEAQKIAEKLAKKAGLTVHKKNGTFELK [P13A]  0.804 kcal/mol
44. TKIIVNGKTFTAKTEEEAQKIAEKLAKKAGLTVHKKNGTFELK [P13K]  0.854 kcal/mol
45. TKIIVNGVTFTAPTEEEAQKIAEKLAKKAGLTVHKKNGTFELK [K8V]  0.864 kcal/mol
46. TKIIVNGLTFTAPTEEEAQKIAEKLAKKAGLTVHKKNGTFELK [K8L]  0.895 kcal/mol
47. TKIIVNGMTFTAPTEEEAQKIAEKLAKKAGLTVHKKNGTFELK [K8M]  0.926 kcal/mol
48. TKIIVNGHTFTAPTEEEAQKIAEKLAKKAGLTVHKKNGTFELK [K8H]  0.948 kcal/mol
49. TKIIVNGKTFTARTEEEAQKIAEKLAKKAGLTVHKKNGTFELK [P13R]  0.954 kcal/mol
50. TKIIVNGITFTAPTEEEAQKIAEKLAKKAGLTVHKKNGTFELK [K8I]  0.962 kcal/mol
51. TKIIVNGKWFTAPTEEEAQKIAEKLAKKAGLTVHKKNGTFELK [T9W]  0.968 kcal/mol
52. TKIIVNGKTFTACTEEEAQKIAEKLAKKAGLTVHKKNGTFELK [P13C]  0.981 kcal/mol
53. TKIIVNGRTFTAPTEEEAQKIAEKLAKKAGLTVHKKNGTFELK [K8R]  0.999 kcal/mol
54. TKIIVNGKIFTAPTEEEAQKIAEKLAKKAGLTVHKKNGTFELK [T9I]  1.01 kcal/mol
55. TKIIVNGKVFTAPTEEEAQKIAEKLAKKAGLTVHKKNGTFELK [T9V]  1.12 kcal/mol
56. TKIIVNGFTFTAPTEEEAQKIAEKLAKKAGLTVHKKNGTFELK [K8F]  1.25 kcal/mol
57. TKIIVNGYTFTAPTEEEAQKIAEKLAKKAGLTVHKKNGTFELK [K8Y]  1.33 kcal/mol
58. TKIIVNGWTFTAPTEEEAQKIAEKLAKKAGLTVHKKNGTFELK [K8W]  1.53 kcal/mol
59. TKIIVNGKCFTAPTEEEAQKIAEKLAKKAGLTVHKKNGTFELK [T9C]  1.66 kcal/mol
